Assay results reported in patent publication US5763571A, “Inhibiting protein interactions” (The General Hospital Corporation, priority 1995, dated 1998).

Columns and labels:
GAP = biological target: T1, GAP (Homo sapiens, UniProt P20936); settings: Schaber et al. 1989; cited from earlier work
T1 sequence (P20936 1-1047): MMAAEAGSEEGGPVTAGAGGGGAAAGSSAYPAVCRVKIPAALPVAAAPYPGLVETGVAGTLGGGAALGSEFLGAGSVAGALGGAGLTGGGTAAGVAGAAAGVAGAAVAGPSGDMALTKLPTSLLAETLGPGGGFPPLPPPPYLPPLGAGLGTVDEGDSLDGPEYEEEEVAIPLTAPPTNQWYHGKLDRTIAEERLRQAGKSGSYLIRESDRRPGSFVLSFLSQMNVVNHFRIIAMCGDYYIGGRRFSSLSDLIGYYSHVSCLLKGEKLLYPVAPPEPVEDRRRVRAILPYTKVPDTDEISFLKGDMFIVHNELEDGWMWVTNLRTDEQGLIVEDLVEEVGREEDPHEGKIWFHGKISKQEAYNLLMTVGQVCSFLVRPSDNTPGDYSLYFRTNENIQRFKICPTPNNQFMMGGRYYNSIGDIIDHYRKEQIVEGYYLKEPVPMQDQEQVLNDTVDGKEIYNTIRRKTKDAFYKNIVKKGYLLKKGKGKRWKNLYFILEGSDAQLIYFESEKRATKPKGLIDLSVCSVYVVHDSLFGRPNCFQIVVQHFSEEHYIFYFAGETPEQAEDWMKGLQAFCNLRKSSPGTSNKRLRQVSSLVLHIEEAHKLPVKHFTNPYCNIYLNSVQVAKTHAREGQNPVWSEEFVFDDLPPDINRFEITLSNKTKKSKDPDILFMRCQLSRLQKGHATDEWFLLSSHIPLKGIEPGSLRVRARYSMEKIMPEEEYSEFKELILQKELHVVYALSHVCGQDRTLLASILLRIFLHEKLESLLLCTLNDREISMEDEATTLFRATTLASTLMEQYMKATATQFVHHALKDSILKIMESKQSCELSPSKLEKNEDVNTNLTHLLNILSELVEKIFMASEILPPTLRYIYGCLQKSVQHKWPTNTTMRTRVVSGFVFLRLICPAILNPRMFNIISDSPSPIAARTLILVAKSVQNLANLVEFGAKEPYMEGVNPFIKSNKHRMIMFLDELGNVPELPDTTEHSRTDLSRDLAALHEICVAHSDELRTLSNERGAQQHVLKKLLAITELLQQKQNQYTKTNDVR

[1] = biological target: T2, complex formation between Ras-GTP and GST-Raf(1-257) (Homo sapiens, UniProt P01112+P04049); assay: Inhibition of Ras/Raf co-precipitation by synthetic peptides (contact epitope scanning); assay type: binding
T2 construct: 6xHis (6XH) (C); made in house; host or cells: E. coli

Ras-GTP = biological target: T3, Ras-GTP (Homo sapiens, UniProt P01112); assay: Comparative co-precipitation of Ras-GTP-γ-32P by GST-Raf proteins; assay type: binding; settings: 10 pmol GST-Raf protein, single concentration
T3 construct: made in house; host or cells: E. coli

[2] = biological target: T4, Ras-GAP stimulation of c-rasH GTPase (Homo sapiens, UniProt P01112); assay: Inhibition of Ras-GAP stimulation of c-rasH GTPase; assay type: biochemical; settings: added at a concentration nearly equal to Ras-GAP
T4 construct: made in house; host or cells: Sf9 (baculovirus)
Method: The GTPase activity was estimated from the γ^32 P-GTP remaining bound to c-rasH after filtration.
In these experiments, baculoviral recombinant c-rasH was expressed and purified from the membrane pellet of Sf9 cells as described for the baculoviral membrane V12GrasH above. The c-rasH was charged with γ^32 P-GTP by combining 0.1 ml of c-rasH (approximately 10 μg/ml) in Ras storage buffer with 0.3 ml of 60 mM TrisCl, pH 7.5, 5 mM EDTA, 0.7 mg/ml BSA, 1.5 mM DTT, 4 mM ATP, 0.142 μM γ^32 P-GTP (4-6 ×10^5 cpm/pmole) on ice. After 1 hour, 50 μl of 135 mM MgCl2 was added. Loading of c-rasH with α^32 P-GTP was carried out under the same conditions; the α^32 P-GTP-c-rasHwas separated from unbound nucleotide by gel filtration (PD-10) in 25 mM TrisCl, pH 7.5, 5 mM MgCl2, 3 mM ATP, 1 mM DTT, and stored on ice. Baculoviral recombinant, full-length human GAP protein was extracted from Sf9 cells by homogenization in 25 mM TrisCl pH 7.5, 1 mM EGTA, 5 mM MgCl2, 1 mM DTT (GAP buffer) and protease inhibitors. […] GAP was detected using a radiolabeled Ras peptide in a filter binding assay. […] The mixture was filtered through a BA85 nitrocellulose membrane, washed 3×with 4 ml of stop solution, and the filters analyzed for retained ^32 P-labeled nucleotide.

GTPγS-loaded V12GrasH = assay: In vitro direct binding of Ras to immobilized GST-Raf (immunoblot); settings: immobilized on glutathione agarose, 6 hours 4° C., pan-Ras immunoblot
Method: In vitro direct binding experiments were carried out as follows. […] After 6 hours of tumbling at 4° C., the glutathione agarose beads were washed and analyzed for the binding of Ras peptide by sodium dodecyl sulfate-polyacrylamide gel electrophoresis (SDS-PAGE), followed by immunoblotting using a pan-Ras monoclonal antibody-2 (oncogene Science).
The DNA sequences encoding Raf1 amino acid residues 1-257 were generated by the polymerase chain reaction (PCR), using as template the plasmids RSV-C4 and RSV-PM17 (Bruder, J. T., Heidecker, G. & Rapp, U.R. Genes Dev. 6, 545-556 (1992)), which encode the wild-type and C168 →S mutant sequences, respectively. The c-DNA were inserted into pGEX-KG (Guan, K. L. and Dixon J. E., Anal Biochem. 192, 262-267 (1991)) at the EcoR1 and Sall sites, and sequenced to confirm the mutation and proper in-frame insertion. […] About 50% of the recombinant peptides were recovered as full-length fusion proteins. […] The beads were washed 4×and resuspended in buffer A as a 50% suspension. […] Following transfer to polyvinylidene difluoride (PVDF) membrane, the membrane was immunoblotted using pan-Ras monoclonal antibody-2 (Oncogene Science) and detected using the enhanced chemiluminescence technique (Amersham).

For “31-43: Ras peptide of a previous study (Schaber et al.) (EYDPTIEDSYRKQ; UniProt P01112 31-43, looked up, fragment)”, the “Competition of Ras/GAP interaction (in words), previous study” value (GAP) is given as “did not compete at all”.
With “96-112 peptide: acetylated, C-terminal amide peptide of c-Raf-1 residues 96-112 (Ac-CAVFRLLHEHKGKKARL-NH2)” the “Inhibition of Ras-Raf association by peptide (in words)” value [1] was “little inhibition”.
In the case of “GST-Raf(1-131): GST fusion of c-Raf-1 residues 1-131, unstable”, the “Complex formation with Ras-GTP-γ-32P by co-precipitation (in words)” value (Ras-GTP) is reported as “complexed as well with Ras-GTP”.
In the case of “GST-Raf(1-257, C168 →S): mutant fragment in which serine replaces cysteine at position 168”, the “Inhibition of Ras-GAP stimulation of Ras GTPase (in words)” value [2] is reported as “significantly less inhibition” and the “Binding of GTPγS-V12GrasH (in words)” value (GTPγS-loaded V12GrasH) is reported as “significantly lower amounts of Ras are retained”.
In the case of “GST-Raf(51-149): GST fusion of c-Raf-1 residues 51-149 (SEQ ID NO:7)”, the “Complex formation with Ras-GTP-γ-32P by co-precipitation (in words)” value (Ras-GTP) is reported as “complexed as well with Ras-GTP”.
In the case of “Ras 23-37: Ras peptide of a previous study (Schaber et al.) (LIQNHFVDEYDPTIE; UniProt P01112 23-37, looked up, fragment)”, the “Competition of Ras/GAP interaction (in words), previous study” value (GAP) is listed as “did not compete at all”.
